From US20060099701

What was measured:
[1] = test system: ACDK proteins (immunoprecipitated from brain tissue extracts with the anti-ACDK-specific antibody)
[2] = test system: cyclin A (immunoprecipitated)

Substance | pRB phosphorylation (kinase reaction, Western blot with pRB phosphospecific antibodies) [1] | pRB phosphorylation (kinase reaction, Western blot with pRB phosphospecific antibodies) [2] | observed phosphorylation efficiency of pRB, against the cyclin A-CDK2 complex [1]
CDK1 (immunoprecipitated, native) | by ACDK-CDK1 complex at serine 249 and/or threonine 252 | Lane B, pRB phosphorylated by cyclin A-CDK1 (positive control) | 
CDK2 (immunoprecipitated, native) | pRB was phosphorylated by ACDK-CDK2 complex at threonine 821 | Lane B, pRB phosphorylated by cyclin A-CDK2 (positive control) | ACDK-CDK2 activity was approximately 2-fold higher than that of cyclin A-CDK2 complex
